Kd data for 27 molecules are collected here from publication PMC10786891, “Massively parallel profiling of RNA-targeting CRISPR-Cas13d”.

T1: EsCas13d, nuclease-dead (Eubacterium siraeum, UniProt B0MS50, R295A;H300A;R849A;H854A)
T1 sequence: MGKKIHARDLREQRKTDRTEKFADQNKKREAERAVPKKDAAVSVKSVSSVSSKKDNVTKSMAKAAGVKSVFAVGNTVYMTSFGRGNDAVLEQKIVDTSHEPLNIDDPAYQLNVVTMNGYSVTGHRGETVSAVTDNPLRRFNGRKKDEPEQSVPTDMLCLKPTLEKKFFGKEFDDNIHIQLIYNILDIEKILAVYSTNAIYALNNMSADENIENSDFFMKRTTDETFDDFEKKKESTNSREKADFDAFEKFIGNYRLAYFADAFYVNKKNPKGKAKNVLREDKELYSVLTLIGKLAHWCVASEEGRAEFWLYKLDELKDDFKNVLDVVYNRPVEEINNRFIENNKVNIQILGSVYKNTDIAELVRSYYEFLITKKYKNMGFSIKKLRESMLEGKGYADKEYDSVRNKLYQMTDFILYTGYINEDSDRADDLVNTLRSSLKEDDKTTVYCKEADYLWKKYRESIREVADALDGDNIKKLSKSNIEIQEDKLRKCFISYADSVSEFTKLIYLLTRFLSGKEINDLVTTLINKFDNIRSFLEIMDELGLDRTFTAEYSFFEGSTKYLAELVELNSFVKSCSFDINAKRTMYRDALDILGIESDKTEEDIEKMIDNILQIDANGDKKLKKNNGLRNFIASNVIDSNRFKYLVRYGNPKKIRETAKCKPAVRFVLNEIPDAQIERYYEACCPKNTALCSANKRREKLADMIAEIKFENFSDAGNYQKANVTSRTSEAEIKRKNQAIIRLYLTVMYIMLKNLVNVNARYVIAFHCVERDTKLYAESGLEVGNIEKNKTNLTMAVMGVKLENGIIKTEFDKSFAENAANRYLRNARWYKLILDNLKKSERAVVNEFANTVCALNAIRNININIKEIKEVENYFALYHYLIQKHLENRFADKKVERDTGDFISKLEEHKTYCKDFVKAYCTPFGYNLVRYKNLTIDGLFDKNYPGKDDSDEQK

B1: target 3 U8A,A11C (mixed)
RNA 1: CACCCGUGCAAAAUUGCAGGGGUCUAAAACGACCUGAAUAUUUCAGAUCAAA
RNA 2: GGGAAUGGAUCCACAUCUACGAAUUCGUUUUUGAUCUGAACUAAUCAGGUCUGCAGAUCGGAAGAGCACACGU
B2: target 3 insG 3' of 5 (mixed)
RNA 1: CACCCGUGCAAAAUUGCAGGGGUCUAAAACGACCUGAAUAUUUCAGAUCAAA
RNA 2: GGGAAUGGAUCCACAUCUACGAAUUCGUUUUUGAUCUGAAAUAUUCAGGGUCUGCAGAUCGGAAGAGCACACGU
B3: target 3 G4A,U7A (mixed)
RNA 1: CACCCGUGCAAAAUUGCAGGGGUCUAAAACGACCUGAAUAUUUCAGAUCAAA
RNA 2: GGGAAUGGAUCCACAUCUACGAAUUCGUUUUUGAUCUGAAAUAUACAAGUCUGCAGAUCGGAAGAGCACACGU
B4: target 3 G3U,C6U (mixed)
RNA 1: CACCCGUGCAAAAUUGCAGGGGUCUAAAACGACCUGAAUAUUUCAGAUCAAA
RNA 2: GGGAAUGGAUCCACAUCUACGAAUUCGUUUUUGAUCUGAAAUAUUUAGUUCUGCAGAUCGGAAGAGCACACGU
B5: target 3 G4U,A11G (mixed)
RNA 1: CACCCGUGCAAAAUUGCAGGGGUCUAAAACGACCUGAAUAUUUCAGAUCAAA
RNA 2: GGGAAUGGAUCCACAUCUACGAAUUCGUUUUUGAUCUGAAGUAUUCAUGUCUGCAGAUCGGAAGAGCACACGU
B6: target 3 A12G,A18G (mixed)
RNA 1: CACCCGUGCAAAAUUGCAGGGGUCUAAAACGACCUGAAUAUUUCAGAUCAAA
RNA 2: GGGAAUGGAUCCACAUCUACGAAUUCGUUUUUGGUCUGAGAUAUUCAGGUCUGCAGAUCGGAAGAGCACACGU
B7: target 3 C6G,U22A (mixed)
RNA 1: CACCCGUGCAAAAUUGCAGGGGUCUAAAACGACCUGAAUAUUUCAGAUCAAA
RNA 2: GGGAAUGGAUCCACAUCUACGAAUUCGUUAUUGAUCUGAAAUAUUGAGGUCUGCAGAUCGGAAGAGCACACGU
B8: target 3 G4C,U22G (mixed)
RNA 1: CACCCGUGCAAAAUUGCAGGGGUCUAAAACGACCUGAAUAUUUCAGAUCAAA
RNA 2: GGGAAUGGAUCCACAUCUACGAAUUCGUUGUUGAUCUGAAAUAUUCACGUCUGCAGAUCGGAAGAGCACACGU
B9: target 3 G4U,U8A (mixed)
RNA 1: CACCCGUGCAAAAUUGCAGGGGUCUAAAACGACCUGAAUAUUUCAGAUCAAA
RNA 2: GGGAAUGGAUCCACAUCUACGAAUUCGUUUUUGAUCUGAAAUAAUCAUGUCUGCAGAUCGGAAGAGCACACGU
B10: target 3 U7C,U22C (mixed)
RNA 1: CACCCGUGCAAAAUUGCAGGGGUCUAAAACGACCUGAAUAUUUCAGAUCAAA
RNA 2: GGGAAUGGAUCCACAUCUACGAAUUCGUUCUUGAUCUGAAAUAUCCAGGUCUGCAGAUCGGAAGAGCACACGU
B11: target 3 U7A,U8G (mixed)
RNA 1: CACCCGUGCAAAAUUGCAGGGGUCUAAAACGACCUGAAUAUUUCAGAUCAAA
RNA 2: GGGAAUGGAUCCACAUCUACGAAUUCGUUUUUGAUCUGAAAUAGACAGGUCUGCAGAUCGGAAGAGCACACGU
B12: target 3 insG 3' of 6,insG 3' of 2 (mixed)
RNA 1: CACCCGUGCAAAAUUGCAGGGGUCUAAAACGACCUGAAUAUUUCAGAUCAAA
RNA 2: GGGAAUGGAUCCACAUCUACGAAUUCGUUUUUGAUCUGAAAUAUUCGAGGUGCUGCAGAUCGGAAGAGCACACGU
B13: target 3 G3U,C6A (mixed)
RNA 1: CACCCGUGCAAAAUUGCAGGGGUCUAAAACGACCUGAAUAUUUCAGAUCAAA
RNA 2: GGGAAUGGAUCCACAUCUACGAAUUCGUUUUUGAUCUGAAAUAUUAAGUUCUGCAGAUCGGAAGAGCACACGU
B14: target 3 U2G,G4U (mixed)
RNA 1: CACCCGUGCAAAAUUGCAGGGGUCUAAAACGACCUGAAUAUUUCAGAUCAAA
RNA 2: GGGAAUGGAUCCACAUCUACGAAUUCGUUUUUGAUCUGAAAUAUUCAUGGCUGCAGAUCGGAAGAGCACACGU
B15: target 3 U2A,A13U (mixed)
RNA 1: CACCCGUGCAAAAUUGCAGGGGUCUAAAACGACCUGAAUAUUUCAGAUCAAA
RNA 2: GGGAAUGGAUCCACAUCUACGAAUUCGUUUUUGAUCUGUAAUAUUCAGGACUGCAGAUCGGAAGAGCACACGU
B16: target 3 insA 3' of 8,insA 3' of 2 (mixed)
RNA 1: CACCCGUGCAAAAUUGCAGGGGUCUAAAACGACCUGAAUAUUUCAGAUCAAA
RNA 2: GGGAAUGGAUCCACAUCUACGAAUUCGUUUUUGAUCUGAAAUAUAUCAGGUACUGCAGAUCGGAAGAGCACACGU
B17: target 3 insC 3' of 9,insA 3' of 7 (mixed)
RNA 1: CACCCGUGCAAAAUUGCAGGGGUCUAAAACGACCUGAAUAUUUCAGAUCAAA
RNA 2: GGGAAUGGAUCCACAUCUACGAAUUCGUUUUUGAUCUGAAAUACUUACAGGUCUGCAGAUCGGAAGAGCACACGU
B18: target 3 C6G,U8C (mixed)
RNA 1: CACCCGUGCAAAAUUGCAGGGGUCUAAAACGACCUGAAUAUUUCAGAUCAAA
RNA 2: GGGAAUGGAUCCACAUCUACGAAUUCGUUUUUGAUCUGAAAUACUGAGGUCUGCAGAUCGGAAGAGCACACGU
B19: target 3 U2G,A12U (mixed)
RNA 1: CACCCGUGCAAAAUUGCAGGGGUCUAAAACGACCUGAAUAUUUCAGAUCAAA
RNA 2: GGGAAUGGAUCCACAUCUACGAAUUCGUUUUUGAUCUGAUAUAUUCAGGGCUGCAGAUCGGAAGAGCACACGU
B20: target 3 insG 3' of 9,insU 3' of 5 (mixed)
RNA 1: CACCCGUGCAAAAUUGCAGGGGUCUAAAACGACCUGAAUAUUUCAGAUCAAA
RNA 2: GGGAAUGGAUCCACAUCUACGAAUUCGUUUUUGAUCUGAAAUAGUUCAUGGUCUGCAGAUCGGAAGAGCACACGU
B21: target 3 G4U,A5G (mixed)
RNA 1: CACCCGUGCAAAAUUGCAGGGGUCUAAAACGACCUGAAUAUUUCAGAUCAAA
RNA 2: GGGAAUGGAUCCACAUCUACGAAUUCGUUUUUGAUCUGAAAUAUUCGUGUCUGCAGAUCGGAAGAGCACACGU
B22: target 3 U2A,U7A (mixed)
RNA 1: CACCCGUGCAAAAUUGCAGGGGUCUAAAACGACCUGAAUAUUUCAGAUCAAA
RNA 2: GGGAAUGGAUCCACAUCUACGAAUUCGUUUUUGAUCUGAAAUAUACAGGACUGCAGAUCGGAAGAGCACACGU
B23: target 3 del2,del6 (mixed)
RNA 1: CACCCGUGCAAAAUUGCAGGGGUCUAAAACGACCUGAAUAUUUCAGAUCAAA
RNA 2: GGGAAUGGAUCCACAUCUACGAAUUCGUUUUUGAUCUGAAAUAUUAGGCUGCAGAUCGGAAGAGCACACGU
B24: target 3 insG 3' of 7,insU 3' of 3 (mixed)
RNA 1: CACCCGUGCAAAAUUGCAGGGGUCUAAAACGACCUGAAUAUUUCAGAUCAAA
RNA 2: GGGAAUGGAUCCACAUCUACGAAUUCGUUUUUGAUCUGAAAUAUUGCAGGUUCUGCAGAUCGGAAGAGCACACGU
B25: target 3 insC 3' of 13,insC 3' of 3 (mixed)
RNA 1: CACCCGUGCAAAAUUGCAGGGGUCUAAAACGACCUGAAUAUUUCAGAUCAAA
RNA 2: GGGAAUGGAUCCACAUCUACGAAUUCGUUUUUGAUCUGACAAUAUUCAGGCUCUGCAGAUCGGAAGAGCACACGU
B26: target 1 insA 3' of 5,insA 3' of 2 (mixed)
RNA 1: CACCCGUGCAAAAAUGCAGGGGUCUAAAACUGAGCGGAUAACCUCUCUAUGG
RNA 2: GGGAAUGGAUCCACAUCUACGAAUUCGUACCAUAGAGAGGUUAUCCGACUCAACCGAGAUCGGAAGAGCACACGU
B27: target 1 insU 3' of 21,insC 3' of 5 (mixed)
RNA 1: CACCCGUGCAAAAAUGCAGGGGUCUAAAACUGAGCGGAUAACCUCUCUAUGG
RNA 2: GGGAAUGGAUCCACAUCUACGAAUUCGUACCUAUAGAGAGGUUAUCCGCCUCACCGAGAUCGGAAGAGCACACGU

The target in this data set is T1, EsCas13d, nuclease-dead. The experiment in a line: crRNA (strand 1, pre-loaded); Mg2+; 40 mM Tris-HCl pH 7.5, 150 mM NaCl, 6 mM MgCl2, 1 mM DTT, 0.1% Tween-20, 0.2 mg/ml BSA; 25 C; 10 min per concentration, then washed. Particulars: tags: His6-TwinStrep-SUMO cleaved; N-terminal SNAP kept (SNAP-Surface 488); label: 3' end held by stalled T7 RNA polymerase.
Consider B1, for which the affinity, expressed as Kd, was 42 ± 7 nM.

B2: binding was characterised by a dissociation constant (Kd) of 19.9 ± 1.95 nM.

As to B3, the Kd was found to be 21.1 ± 2.25 nM.

In turn, B4 showed a dissociation constant (Kd) of 19.2 ± 1.95 nM.

With B5, the Kd was found to be 43.5 ± 8 nM.

On to B6, for which binding was characterised by a dissociation constant (Kd) of 62 ± 13 nM.

The molecule B7 showed a Kd of 26.2 ± 3.5 nM.

With B8, the Kd amounted to 85.5 ± 24.5 nM.

Molecule B9 registered a dissociation constant (Kd) of 30.2 ± 3.9 nM.

B10 had a dissociation constant Kd of 70.5 ± 13.5 nM.

As to B11, binding was characterised by a dissociation constant (Kd) of 84 ± 24 nM.

On to B12, for which the Kd stood at 16.3 ± 3 nM.

In turn, B13 showed a Kd of 39.7 ± 3.65 nM.

Consider B14, for which the Kd turned out to be 2.11 ± 0.25 nM.

Regarding B15, the Kd was ~91.5 nM.

The molecule B16 gave an equilibrium dissociation constant (Kd) of 59.5 ± 18.5 nM.

Molecule B17 yielded a dissociation constant Kd of 60.5 ± 12.5 nM.

Take B18: the equilibrium dissociation constant (Kd) stood at 74.5 ± 7 nM.

B19: the Kd came out at 46.5 ± 6.5 nM.

Turning to B20, binding was characterised by a dissociation constant (Kd) of 65.5 ± 9 nM.

Regarding B21, the Kd was 7.04 ± 0.57 nM.

Molecule B22 gave a dissociation constant Kd of 13.1 ± 1.7 nM.

Consider B23, for which the Kd was found to be 18 ± 1.85 nM.

The molecule B24 gave an equilibrium dissociation constant (Kd) of 47.5 ± 10.5 nM.

In the case of B25, binding was put at a Kd of 81 ± 22 nM.

B26 returned an equilibrium dissociation constant (Kd) of 7.8 ± 0.7 nM.

Take B27: the Kd was 50 ± 10 nM.

The term Kd denotes the concentration at which binding is half-saturated. A low value points to higher affinity.
